Laboratory results as given in US10370653B2, “Micro-screening apparatus, process, and products” (priority 2015, dated 2019).

How the values were obtained:
[1] = system: CC1(C)C2=C(Cl)C(=O)C(Cl)=CC2=Nc2ccc(OP(=O)(O)O)cc21; test: Michaelis-Menten kinetics of yeast-displayed AP with DDAOP; type: biochemical, E. coli; details: other: substrate DDAOP, yeast display, pH 8.0
Excerpt: (§1) Preparation of alkaline phosphatase protein constructs.
(§2) Analysis of alkaline phosphate activity.
For kinetic measurements on the μSCALE platform, a series of images were acquired at set intervals with 600/60 nm excitation/655 nm long pass emission filters to generate single-cell reaction time courses for each cavity in the array. […] Error bars reflect the standard deviation across all cavities in each spot and were used to fit a calibration line using weighted least squares. In both cases, the linear regime of each kinetic time series was used to estimate reaction rates.
(§3) Alkaline phosphatase was used as a model system.

[2] = system: CC1(C)C2=C(Cl)C(=O)C(Cl)=CC2=Nc2ccc(OP(=O)(O)O)cc21; test: Michaelis-Menten kinetics of purified AP with DDAOP; type: biochemical, E. coli; details: other: substrate DDAOP, purified protein, pH 8.0
Excerpt: as §1, §2, §3

[3] = target: fluorescently labeled phosphate-binding protein (PBP) from E. coli (Life Technologies, PV4406) (Escherichia coli, UniProt P0AG82, A222C); details: inorganic phosphate ([Pi]); two-state binding isotherm; TrisHCl pH 7.6
Sequence of fluorescently labeled phosphate-binding protein (PBP) from E. coli (Life Technologies, PV4406) (P0AG82 26-346 A222C): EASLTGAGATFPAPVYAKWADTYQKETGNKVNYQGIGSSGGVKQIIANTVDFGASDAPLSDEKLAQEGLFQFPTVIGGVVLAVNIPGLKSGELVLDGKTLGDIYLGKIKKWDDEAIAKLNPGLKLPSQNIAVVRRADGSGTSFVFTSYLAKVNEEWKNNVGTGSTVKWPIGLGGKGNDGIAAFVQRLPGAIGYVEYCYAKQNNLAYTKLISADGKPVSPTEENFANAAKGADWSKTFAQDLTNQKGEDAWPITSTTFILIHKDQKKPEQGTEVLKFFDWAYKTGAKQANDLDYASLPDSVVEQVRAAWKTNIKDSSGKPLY
Description: Briefly, 100 μL of each sample was mixed with 100 μL of 1 μM PBP in Phosphate Sensor Detection Buffer (20 mM TrisHCl pH 7.6, 0.05% Triton X-100), and fluorescence of the mixture was immediately read out at an excitation/emission of 430/450 nm on a Biotek SYNERGY™ H4 plate reader spectrophotometer. When measuring phosphate content in the AP Reaction Buffer, the buffer was diluted 1:20 in water prior to incubation with the sensor in order to minimize interference from the concentrated MOPS and salt solutions on the PBP binding thermodynamics. PBP stocks were stored as 10 μM aliquots in Phosphate Sensor Storage Buffer (10 mM TrisHCl pH 7.6, 50 mM NaCl) at −80° C. and individually thawed prior to use. […] Error bars reflect the standard deviation over three measurements.

With “E. coli alkaline phosphatase (AP), wild type (WT), GENBANK Accession Number M13345, yeast-displayed (Escherichia coli K-12)” the Km [1] was 4.3 ± 0.4 µM.

In the case of “E. coli alkaline phosphatase (AP), wild type (WT), GENBANK Accession Number M13345, purified protein (Escherichia coli K-12)”, the Km ([2]; 50 pM) is reported as 4.1 ± 0.1 µM, the kcat ([2]; 50 pM) is reported as 15.7 ± 0.2 s⁻¹ and the kcat/Km ([2]; 50 pM) is reported as “(3.8 +/− 0.1) × 10^6 M^-1 s^-1”.

For “E. coli alkaline phosphatase (AP) variant R166S, purified protein (Escherichia coli K-12; R188S)”, the Km [2] was 51 ± 4 µM, the kcat [2] was 0.7 ± 0.2 s⁻¹ and the kcat/Km [2] was “(1.4 +/− 0.4) × 10^4 M^-1 s^-1”.

With “E. coli alkaline phosphatase (AP) variant R166S, yeast-displayed (Escherichia coli K-12; R188S)” the Km [1] was 55 ± 7 µM.

With `O=P(O)(O)O` [inorganic phosphate] the Kd [3] was 940 nM.
